B1: Hda1 (enzyme)
chain: MDSVMVKKEVLENPDHDLKRKLEENKEEENSLSTTSKSKRQVIVPVCMPKIHYSPLKTGLCYDVRMRYHAKIFTSYFEYIDPHPEDPRRIYRIYKILAENGLINDPTLSGVDDLGDLMLKIPVRAATSEEILEVHTKEHLEFIESTEKMSREELLKETEKGDSVYFNNDSYASARLPCGGAIEACKAVVEGRVKNSLAVVRPPGHHAEPQAAGGFCLFSNVAVAAKNILKNYPESVRRIMILDWDIHHGNGTQKSFYQDDQVLYVSLHRFEMGKYYPGTIQGQYDQTGEGKGEGFNCNITWPVGGVGDAEYMWAFEQVVMPMGREFKPDLVIISSGFDAADGDTIGQCHVTPSCYGHMTHMLKSLARGNLCVVLEGGYNLDAIARSALSVAKVLIGEPPDELPDPLSDPKPEVIEMIDKVIRLQSKYWNCFRRRHANSGCNFNEPINDSIISKNFPLQKAIRQQQQHYLSDEFNFVTLPLVSMDLPDNTVLCTPNISESNTIIIVVHDTSDIWAKRNVISGTIDLSSSVIIDNSLDFIKWGLDRKYGIIDVNIPLTLFEPDNYSGMITSQEVLIYLWDNYIKYFPSVAKIAFIGIGDSYSGIVHLLGHRDTRAVTKTVINFLGDKQLKPLVPLVDETLSEWYFKNSLIFSNNSHQCWKENESRKPRKKFGRVLRCDTDGLNNIIEERFEEATDFILDSFEEWSDEE
B2: Hda2 (natural protein)
chain: MSRKNSKKLKVYYLPVTLTQFQKDLSEILISLHAKSFKASIIGEPQADAVNKPSGLPAGPETHPYPTLSQRQLTYIFDSNIRAIANHPSLLVDHYMPRQLLRMEPTESSIAGSHKFQVLNQLINSICFRDREGSPNEVIKCAIIAHSIKELDLLEGLILGKKFRTKRLSGTSLYNEKHKFPNLPTVDSTINKDGTPNSVSSTSSNSNSTSYTGYSKDDYDYSVKRNLKKRKINTDDWLFLATTKHLKHDQYLLANYDIDMIISFDPMLEVELPALQVLRNNANKDIPIIKLLVQNSPDHYLLDSEIKNSSVKSSHLSNNGHVDDSQEYEEIKSSLLYFLQARNAPVNNCEIDYIKLVKCCLEGKDCNNILPVLDLITLDEASKDSSDSGFWQPQLTKLQYSSTELPLWDGPLDIKTYQTELMHRAVIRLRDIQDEYAKGTVPLYEKRLNETQRQNQLDEIKNSVGLTFKKKQEVEKSINDSEKRLKHAMTESTKLQNKINHLLKNRQELENFNKLPSNTISSENHLEEGSALADKLKEYIDKNATLFNKLKELQQANAEKSKLNDELRSKYQIESSKAAESAQTLKILQESMKSLENEVNGPLTKFSTESLKKELERLQNDFQSLKARNKFLKNYITLMNRQYDLKNKNNVQVEKAAANGTRFRSTRSNTPNYT
B3: Hda3 (natural protein)
chain: MDLLRILDTKPIPTIVDATTLGISGNTSGDYWLPTTMSLYQKELTDQIVSLHYSDILRYFETSHYKEDVILESMKTMCLNGSLVATHPYLLIDHYMPKSLITRDVPAHLAENSGKFSVLRDLINLVQEYETETAIVCRPGRTMDLLEALLLGNKVHIKRYDGHSIKSKQKANDFSCTVHLFSSEGINFTKYPIKSKARFDMLICLDTTVDTSQKDIQYLLQYKRERKGLERYAPIVRLVAINSIDHCRLFFGKKFDKNSREYLENVTAAMVILRDRLGTLPPDLRPIYSQKLHYLVEWLENPTVPWPLPDIYPLKQYTSMDVERSLLTEVHFKKSDDQLEDAFSNCSKKRGRHGANKAASSTVAGIEDNITPSFYSTKRLKNDYYTNPLKQDMTQLTGITTADNSSNVNYHLSSGIITHKLIQSMGEVYMDICVQKQELDDYSCLDDLQNDHLKFFSNEDEKIIKEYETVLRTNNENLNRSHELEVENNLKFSQIETLEKDIETLKGSLMAQGETLSKLKDAFVKTDNVQDEIEKEERVSVSRDTEKKYMEQEIKRAVDAIRENEEETHKLNEKQNGLESELKLKFEKSEISTKELNEKIGFLKKELKLENDLNEELVGQLSKTMDNLENLTIPRVRTQNGNTKKKSRAKKPGNV

The target in data set [1] is HDAC protomer complex (Hda1_(2)-Hda2-Hda3 heterotetrameric complex) (S. cerevisiae) (UniProt P53973). Nature of the data set: cryo-EM structure.
Data set [2] concerns the molecule itself. As to the kind of experiment: SEC-MALS. (In general: Size exclusion chromatography separates by hydrodynamic size, large species first.)
Data set [3] concerns the target B1. As to the kind of experiment: SEC-MALS.
For data set [4], the target named is B2. Nature of the data set: cryo-EM structure.
The target in data set [5] is B1. As to the kind of experiment: cryo-EM structure.

The term stoichiometry N denotes a count of units in the complex or per binding partner. Turning to “HDAC protomer complex (Hda1_(2)-Hda2-Hda3 heterotetrameric complex) (from UniProt P53973;Q06629;Q06623)”, in data set [1], the stoichiometry N is 2. On to B1, for which, in data set [2], the “stoichiometry N” value worked out at 2.

On to B2, for which the binding result in data set [3] was “binds”. For the molecule B3, the binding result in data set [4] and in data set [5] was “binds” each time.
